Here are results for three molecules from article PMC12219266, “The molecular basis for acetylhistidine synthesis by HisAT/NAT16” (Nature Communications, 2025).

For one data set, the target named is T1, NAT16 (HisAT) (Homo sapiens, UniProt Q8N8M0).
T1 construct: full length (369 aa), C-terminal 6xHis tag kept, codon-optimised, pFastBac1, Sf9 insect cells
T1 sequence (Q8N8M0 1-369): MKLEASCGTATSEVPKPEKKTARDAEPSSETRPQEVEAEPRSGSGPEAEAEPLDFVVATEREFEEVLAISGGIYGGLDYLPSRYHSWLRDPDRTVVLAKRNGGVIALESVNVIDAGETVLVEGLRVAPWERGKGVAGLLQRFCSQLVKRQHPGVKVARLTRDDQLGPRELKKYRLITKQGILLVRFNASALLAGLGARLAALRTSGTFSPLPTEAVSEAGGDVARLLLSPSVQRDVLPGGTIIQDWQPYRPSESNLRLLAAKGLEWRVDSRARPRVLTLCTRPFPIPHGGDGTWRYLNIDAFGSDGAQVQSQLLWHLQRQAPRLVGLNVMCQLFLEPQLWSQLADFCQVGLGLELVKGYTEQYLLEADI
Put plainly: DTNB real-time assay, Michaelis-Menten fit. The class given is biochemical. The following applies: 50 µM Ac-CoA; 50 mM Na-phosphate pH 7.5, 37 °C.

Substrate in data set [1]: CC(=O)SCCNC(=O)CCNC(=O)[C@H](O)C(C)(C)COP(=O)(O)OP(=O)(O)OC[C@H]1O[C@@H](n2cnc3c(N)ncnc32)[C@H](O)[C@@H]1OP(=O)(O)O
Description: DTNB real-time assay, initial rates, ternary complex model, secondary plots. The data set is classed as biochemical, Homo sapiens. The following applies: varied with L-histidine, 50 mM Na-phosphate pH 7.5, 100 mM NaCl, 1 mM EDTA, 37 °C. From the text:
(§1) DTNB real-time assay, initial rates, ternary complex model, secondary plots on NAT16 (HisAT)

Substrate in data set [2]: N[C@@H](Cc1c[nH]cn1)C(=O)O
The description is as above. The following applies: varied with Ac-CoA, 50 mM Na-phosphate pH 7.5, 100 mM NaCl, 1 mM EDTA, 37 °C. The class given is biochemical, Homo sapiens.
Text: as §1

Consider `NCCCC[C@H](N)C(=O)O` [lysine], for which, on NAT16 (HisAT), the “apparent KM” value was “determined the apparent kcat and KM with arginine and lysine”.
As for `N=C(N)NCCC[C@H](N)C(=O)O` [arginine], the “apparent KM” value at NAT16 (HisAT) was “determined the apparent kcat and KM with arginine and lysine”.

B1: NAT16 (HisAT) (Homo sapiens) (protein)
chain: MKLEASCGTATSEVPKPEKKTARDAEPSSETRPQEVEAEPRSGSGPEAEAEPLDFVVATEREFEEVLAISGGIYGGLDYLPSRYHSWLRDPDRTVVLAKRNGGVIALESVNVIDAGETVLVEGLRVAPWERGKGVAGLLQRFCSQLVKRQHPGVKVARLTRDDQLGPRELKKYRLITKQGILLVRFNASALLAGLGARLAALRTSGTFSPLPTEAVSEAGGDVARLLLSPSVQRDVLPGGTIIQDWQPYRPSESNLRLLAAKGLEWRVDSRARPRVLTLCTRPFPIPHGGDGTWRYLNIDAFGSDGAQVQSQLLWHLQRQAPRLVGLNVMCQLFLEPQLWSQLADFCQVGLGLELVKGYTEQYLLEADI
notes: full length (369 aa), C-terminal 6xHis tag kept, codon-optimised, pFastBac1, Sf9 insect cells
Take B1: in data set [1], the Km came to 19.8 ± 4.5 µM, the kcat was determined as 36.5 ± 4.6 s⁻¹ and the kcat/Km amounted to 1.9e+06 M⁻¹ s⁻¹. Moreover, in data set [2], the Km stood at 215 ± 53 µM, the kcat stood at 36.5 ± 4.6 s⁻¹ and the kcat/Km was 177000 M⁻¹ s⁻¹.
